Results on 1 molecule are retold here after paper doi:10.1101/501098 (bioRxiv, 2018).

For this test, the target named is Histone H4 (Xenopus laevis), in the nucleosome (Xenopus laevis, UniProt P62799 2-103). Kind of test: cryo-EM structure.

B1: Dot1L(2-416) (domain or fragment)
chain: GEKLELRLKSPVGAEPAVYPWPLPVYDKHHDAAHEIIETIRWVCEEIPDLKLAMENYVLIDYDTKSFESMQRLCDKYNRAIDSIHQLWKGTTQPMKLNTRPSTGLLRHILQQVYNHSVTDPEKLNNYEPFSPEVYGETSFDLVAQMIDEIKMTDDDLFVDLGSGVGQVVLQVAAATNCKHHYGVEKADIPAKYAETMDREFRKWMKWYGKKHAEYTLERGDFLSEEWRERIANTSVIFVNNFAFGPEVDHQLKERFANMKEGGRIVSSKPFAPLNFRINSRNLSDIGTIMRVVELSPLKGSVSWTGKPVSYYLHTIDRTILENYFSSLKNPKLREEQEAARRRQQRESKSNAATPTKGPEGKVAGPADAPMDSGAEEEKAGAATVKKPSPSKARKKKLNKKGRKMAGRKRGRPKK
On to B1, for which the binding result is “binds”.
